Key:
[1] = biological target: CEACAM-binding Opa protein (OpaCEA) from N. gonorrhoeae, expressed in E. coli (E. coli OpaCEA) (Neisseria gonorrhoeae)
[2] = biological target: AfaE-III adhesin of uropathogenic E. coli strain A30 (E. coli AfaE-III) (E. coli (uropathogenic strain A30))

GFP-tagged amino-terminal IgV-like domain of human CEA (CEA-N) (domain or fragment)
bacteria recovered from the urogenital tract 24 h after vaginal infection, CEAtg mice (human CEA on mucosal surfaces) against wildtype mice [1]: > 30 fold
bacteria recovered from the urogenital tract 24 h after vaginal infection, CEAtg mice (human CEA on mucosal surfaces) against wildtype mice [2]: > 80 fold
